Results: the RNAGym collection of RNA variant scans (doi:10.7554/elife.90254)

B1: LINE1-mini (parent)
chain: GGCAGAGCUCAACACAGCGUGGCAAAGUGGCUGUGGCUAGACUGCC

Variants of: B1
Assay: self-cleavage, relative activity (ratio to wild type); higher = more cleavage; in vitro, sequencing; the parent is a self-cleaving ribozyme

Variant | self-cleavage
GGCAGAGCUCAACAGAGCGUGGCAAAGUGGCUGUGGCUAGACGGCC [C15G U43G] | 0
GGCAGAGCACAACACGGCGUGGCAAAGUGGCUGUGGCUAGACUGCC [U9A A16G] | 0.11
GGCAGAGCUCAACACAGCGUAGCAAAGUGGCAGUGGCUAGACUGCC [G21A U32A] | 0.08
GGGAGAGCUCAACACAGCGUGGCAAAGUGGCUGUGGCUGGACUGCC [C3G A39G] | 0.56
GGCAGAGCUCAACACAGCGUGGAAAAGUGGCAGUGGCUAGACUGCC [C23A U32A] | 0.11
AGCAGAGCUCAACACAGCGUGGCAAAGUGGCUGGGGCUAGACUGCC [G1A U34G] | 0.29
GGCAGAGCUCAACACAGCGUGGCAAAGUGGCUGGGGUUAGACUGCC [U34G C37U] | 0.1
GGCAUAGCUCAACACAGCGUGGCAAAAUGGCUGUGGCUAGACUGCC [G5U G27A] | 0.06
GGCAGAGCUCAACACAGCGUGGCAAAGUGGCGCUGGCUAGACUGCC [U32G G33C] | 0.09
GGCAGAGCUCAACACAGCGGGGCAAAAUGGCUGUGGCUAGACUGCC [U20G G27A] | 0.72
GGCAGAGCUCAACACAGCGUGGCAAGGUGGCUGUGGCAAGACUGCC [A26G U38A] | 0.52
GGCAGAGCUCGAGACAGCGUGGCAAAGUGGCUGUGGCUAGACUGCC [A11G C13G] | 0.02
GGCAGAGCUCAACACAGUGUGGCAAAGUGGCUGUGGCAAGACUGCC [C18U U38A] | 0.75
GCCAGAGCUCGACACAGCGUGGCAAAGUGGCUGUGGCUAGACUGCC [G2C A11G] | 0.02
GGCAGUGCUCAACACAGCGUGGCAAAUUGGCUGUGGCUAGACUGCC [A6U G27U] | 0.58
GUCAGAGCUCAACAGAGCGUGGCAAAGUGGCUGUGGCUAGACUGCC [G2U C15G] | 0.02
GGCAUCGCUCAACACAGCGUGGCAAAGUGGCUGUGGCUAGACUGCC [G5U A6C] | 0.16
GGCAGAGCUCAAGACAGCGUGGCAAAGUGGCUGUGGCUACACUGCC [C13G G40C] | 0.14
GGCAUAGCUCAACACAGCGUGGCAAAGUGGCUGUGGUUAGACUGCC [G5U C37U] | 0.05

Variant | self-cleavage
GGCAGAGCUCAACACAGCGUGGCUAAGUGGCUGUGGCUAAACUGCC [A24U G40A] | 0.14
GGCAGAGCUCAACACAGCAUGGCAAAGUGGCUGUGGCUAGACCGCC [G19A U43C] | 0.18
GGCAGAGCUCAACACAGCGUAGCAAAUUGGCUGUGGCUAGACUGCC [G21A G27U] | 1.35
GGCAGAGCUCAACACAGCGUGGCAAAGUGGCGGUGACUAGACUGCC [U32G G36A] | 0.09
GGCAGAGCUCGACACAGCGUGGCCAAGUGGCUGUGGCUAGACUGCC [A11G A24C] | 0.03
GGCAGAGCUCAACACAGCAUCGCAAAGUGGCUGUGGCUAGACUGCC [G19A G21C] | 0.39
GGCAGAGCUCAACACAGCGUGGCAAAGUGGCUGUGUCUAGACUGAC [G36U C45A] | 0.15
GGCAGAGCUCAACACAGCGUGGCAAAUGGGCUGUGGCUAGACUGCC [G27U U28G] | 1.08
GGCCGAGCACAACACAGCGUGGCAAAGUGGCUGUGGCUAGACUGCC [A4C U9A] | 0.18
AGCAGAGCUCAACACAGCGUCGCAAAGUGGCUGUGGCUAGACUGCC [G1A G21C] | 2.09
GGCAGAUCUCAGCACAGCGUGGCAAAGUGGCUGUGGCUAGACUGCC [G7U A12G] | 0.04
GGCAGAGCUCACCACAGCGUGGCAAAGUGGCUGUGGCUAAACUGCC [A12C G40A] | 0.04
GGCCGAGCUCAACACAGCGUGGCAAAGGGGCUGUGGCUAGACUGCC [A4C U28G] | 0.18
GGCAGAGCUCAACACAGCGUGGCAAAGUGUCUGUGGCUAGACUACC [G30U G44A] | 0.42
GGCUGAGCUCAACACAGCGUGGCAAAGUGGCUGUCGCUAGACUGCC [A4U G35C] | 0.11
GGCAGUGCUCAACACAGCGUGGCAAAGUGGCUGUGCCUAGACUGCC [A6U G36C] | 0.25
GGCAGAGCUCAACACAGCGUGGCAAAGAGGCUGUGGCUAGACUUCC [U28A G44U] | 0.33
GGCAGAGCUCAACACCGCGUGGCAAAGUGGCUUUGGCUAGACUGCC [A16C G33U] | 0.05
GGCAGAGCUCAACAGAGCUUGGCAAAGUGGCUGUGGCUAGACUGCC [C15G G19U] | 0.03

Variant | self-cleavage
GGCAGAGCUCAACACAGCGUGGCAAAGUGGCCGUGGCUACACUGCC [U32C G40C] | 0.03
GGCAGAGCUCCACACAGCGUGGCAAAGUGGCUGUGGCUAGACGGCC [A11C U43G] | 0.03
GUCAGAGCUCAACACAGCGUCGCAAAGUGGCUGUGGCUAGACUGCC [G2U G21C] | 0.09
GGCAGAGCUCUGCACAGCGUGGCAAAGUGGCUGUGGCUAGACUGCC [A11U A12G] | 0.03
GGCAGAGCUCAACGCAGCGUGGGAAAGUGGCUGUGGCUAGACUGCC [A14G C23G] | 0.45
GGCAGAGCUCAACACAGCGCGGCAAAGUGGCUGUGGCUAGACUGUC [U20C C45U] | 1.12
GGCAGAGCUCAACAUAGCUUGGCAAAGUGGCUGUGGCUAGACUGCC [C15U G19U] | 0.87
GGCAGAGCUCAACAGAACGUGGCAAAGUGGCUGUGGCUAGACUGCC [C15G G17A] | 0.05
GGCAGUGCUCAACACAGCGUAGCAAAGUGGCUGUGGCUAGACUGCC [A6U G21A] | 2.16
GGCAGAGCCCAACCCAGCGUGGCAAAGUGGCUGUGGCUAGACUGCC [U9C A14C] | 0.02
GGCAGAGCUCAACUCAGCGUGGCAAAGUAGCUGUGGCUAGACUGCC [A14U G29A] | 0.98
GGCAGAGCGCAACACAGUGUGGCAAAGUGGCUGUGGCUAGACUGCC [U9G C18U] | 0.09
UGCAGAGCUCAACACAGCGUGGCAAAGUAGCUGUGGCUAGACUGCC [G1U G29A] | 0.44
GGCGGAGCUCAACACAGCGUGGCAAAGUGGCUGUGGCUAGACUUCC [A4G G44U] | 0.16
GGCAGAGCUCAACACAGCGAGGCAAAGUGGCUAUGGCUAGACUGCC [U20A G33A] | 0.13
GACAGAGCUCAACACAGCGUGGCAAAGUGGCUGUGCCUAGACUGCC [G2A G36C] | 0.28
GGCAGAGCUCAACACAGCGUGGCAAAGUGGCUGUGGCGAGACUGCC [U38G] | 0.03
GGCAGAGCUCAACACAGCCUGGCAAAGUGGCUGUGGCUAGCCUGCC [G19C A41C] | 0.05
